Reference: IntAct's records for PubMed 17589525

B1: Splicing factor 45 (Homo sapiens), Q96I25 (parent)
chain: MSLYDDLGVETSDSKTEGWSKNFKLLQSQLQVKKAALTQAKSQRTKQSTVLAPVIDLKRGGSSDDRQIVDTPPHVAAGLKDPVPSGFSAGEVLIPLADEYDPMFPNDYEKVVKRQREERQRQRELERQKEIEEREKRRKDRHEASGFARRPDPDSDEDEDYERERRKRSMGGAAIAPPTSLVEKDKELPRDFPYEEDSRPRSQSSKAAIPPPVYEEQDRPRSPTGPSNSFLANMGGTVAHKIMQKYGFREGQGLGKHEQGLSTALSVEKTSKRGGKIIVGDATEKDASKKSDSNPLTEILKCPTKVVLLRNMVGAGEVDEDLEVETKEECEKYGKVGKCVIFEIPGAPDDEAVRIFLEFERVESAIKAVVDLNGRYFGGRVVKACFYNLDKFRVLDLAEQV
B2: Splicing factor 45 (Homo sapiens), Q96I25 (parent)
chain: B1 chain
partner: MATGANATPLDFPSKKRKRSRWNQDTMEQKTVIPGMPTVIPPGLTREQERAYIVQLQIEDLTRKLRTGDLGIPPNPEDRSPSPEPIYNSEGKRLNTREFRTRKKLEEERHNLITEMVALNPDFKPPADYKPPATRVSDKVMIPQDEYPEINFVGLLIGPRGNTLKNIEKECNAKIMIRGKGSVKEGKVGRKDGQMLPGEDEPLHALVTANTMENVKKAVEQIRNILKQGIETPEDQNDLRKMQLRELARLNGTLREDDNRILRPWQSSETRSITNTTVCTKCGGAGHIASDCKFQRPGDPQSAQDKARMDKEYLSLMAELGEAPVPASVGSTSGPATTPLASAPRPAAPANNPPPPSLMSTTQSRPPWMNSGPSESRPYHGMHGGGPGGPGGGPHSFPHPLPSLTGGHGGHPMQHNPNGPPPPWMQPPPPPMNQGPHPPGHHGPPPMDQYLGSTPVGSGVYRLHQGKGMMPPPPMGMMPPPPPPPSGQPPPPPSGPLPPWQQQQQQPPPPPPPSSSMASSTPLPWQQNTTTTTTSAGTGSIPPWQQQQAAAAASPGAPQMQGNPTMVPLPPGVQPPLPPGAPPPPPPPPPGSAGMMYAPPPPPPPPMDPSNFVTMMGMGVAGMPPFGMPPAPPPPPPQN

Variants of: B1
Settings: with SF3B1, O75533-1
SF3B1, O75533-1, sequence (O75533 whole entry): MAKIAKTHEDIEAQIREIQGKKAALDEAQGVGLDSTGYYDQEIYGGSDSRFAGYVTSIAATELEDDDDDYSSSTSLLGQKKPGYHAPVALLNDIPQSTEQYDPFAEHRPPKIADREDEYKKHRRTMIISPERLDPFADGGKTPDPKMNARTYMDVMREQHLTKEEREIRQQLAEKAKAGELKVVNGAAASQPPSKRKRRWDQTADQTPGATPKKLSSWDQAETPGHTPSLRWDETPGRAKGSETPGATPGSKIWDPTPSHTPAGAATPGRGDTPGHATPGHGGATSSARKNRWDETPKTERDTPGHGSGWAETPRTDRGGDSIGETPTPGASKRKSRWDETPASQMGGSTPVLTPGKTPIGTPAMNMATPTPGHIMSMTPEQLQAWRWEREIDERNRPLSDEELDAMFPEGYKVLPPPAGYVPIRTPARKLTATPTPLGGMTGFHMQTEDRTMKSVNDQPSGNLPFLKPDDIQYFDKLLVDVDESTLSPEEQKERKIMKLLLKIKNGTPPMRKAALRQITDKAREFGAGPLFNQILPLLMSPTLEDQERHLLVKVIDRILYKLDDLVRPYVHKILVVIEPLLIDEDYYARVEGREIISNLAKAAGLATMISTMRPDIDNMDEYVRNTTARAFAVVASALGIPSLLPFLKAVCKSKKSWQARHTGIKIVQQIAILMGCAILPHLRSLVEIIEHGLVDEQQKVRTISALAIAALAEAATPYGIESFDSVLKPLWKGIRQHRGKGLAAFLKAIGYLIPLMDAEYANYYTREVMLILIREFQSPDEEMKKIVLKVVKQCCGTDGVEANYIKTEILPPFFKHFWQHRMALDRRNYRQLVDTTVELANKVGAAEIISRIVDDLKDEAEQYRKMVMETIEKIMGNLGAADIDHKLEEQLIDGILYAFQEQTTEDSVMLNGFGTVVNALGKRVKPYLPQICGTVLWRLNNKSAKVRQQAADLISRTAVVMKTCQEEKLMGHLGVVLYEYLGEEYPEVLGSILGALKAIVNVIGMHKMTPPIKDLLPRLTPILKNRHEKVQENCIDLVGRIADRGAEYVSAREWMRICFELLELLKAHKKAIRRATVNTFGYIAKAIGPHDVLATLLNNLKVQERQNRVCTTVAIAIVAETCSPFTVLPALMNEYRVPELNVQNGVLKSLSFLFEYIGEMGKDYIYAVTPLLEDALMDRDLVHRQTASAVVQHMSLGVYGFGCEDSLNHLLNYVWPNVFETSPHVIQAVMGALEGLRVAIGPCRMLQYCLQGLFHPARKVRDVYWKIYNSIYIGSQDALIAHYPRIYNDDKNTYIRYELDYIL

Variant	effect of a mutation on the interaction
D319A;E320A;D321A	disrupting interaction strength
D319K	disrupting interaction
E329Q	decreasing interaction
R375A	disrupting interaction
Y376A	disrupting interaction
F377A	disrupting interaction

Variants of: B1
Settings: with U2AF2, P26368
U2AF2, P26368, sequence (P26368 whole entry): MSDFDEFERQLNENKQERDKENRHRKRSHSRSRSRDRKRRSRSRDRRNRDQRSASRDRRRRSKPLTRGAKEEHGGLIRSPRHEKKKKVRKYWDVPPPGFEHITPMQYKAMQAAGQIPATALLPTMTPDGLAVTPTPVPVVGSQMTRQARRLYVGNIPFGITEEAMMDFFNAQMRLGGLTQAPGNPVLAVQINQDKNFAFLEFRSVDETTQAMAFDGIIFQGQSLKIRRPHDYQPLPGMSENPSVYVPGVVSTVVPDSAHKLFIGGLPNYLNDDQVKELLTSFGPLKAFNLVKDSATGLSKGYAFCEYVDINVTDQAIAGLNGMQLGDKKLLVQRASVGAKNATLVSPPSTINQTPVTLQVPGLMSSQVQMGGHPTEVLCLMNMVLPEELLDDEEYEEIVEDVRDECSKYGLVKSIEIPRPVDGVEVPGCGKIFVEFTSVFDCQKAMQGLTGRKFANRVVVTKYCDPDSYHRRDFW

Variant	effect of a mutation on the interaction
D319A;E320A;D321A	disrupting interaction strength
D319K	disrupting interaction
E329Q	disrupting interaction
R375A	disrupting interaction
F377A	decreasing interaction
R375D	disrupting interaction

Variants of: B2
Settings: with sf01_human SF1, Q15637

Variant	effect of a mutation on the interaction
D319A	disrupting interaction
D319K	disrupting interaction
R375A	decreasing interaction
R375D	disrupting interaction
Y376A	decreasing interaction
F377A	decreasing interaction
F377Y	decreasing interaction
